According to PMC10978961, “Architecture and activation of human muscle phosphorylase kinase” (Nature Communications, 2024):

Target: the molecule itself
Test: cryo-EM structure; inactive PhK holoenzyme, dephosphorylated, with 4 mM EGTA and excess calmodulin; 25 mM HEPES pH 6.8, 150 mM NaCl, 2 mM DTT; subunits co-expressed and purified as a complex

B1: human muscle phosphorylase kinase (PhK) β-subunit (natural protein, UniProt Q93100 1-1093, looked up)
chain: MAGAAGLTAEVSWKVLERRARTKRSGSVYEPLKSINLPRPDNETLWDKLDHYYRIVKSTLLLYQSPTTGLFPTKTCGGDQKAKIQDSLYCAAGAWALALAYRRIDDDKGRTHELEHSAIKCMRGILYCYMRQADKVQQFKQDPRPTTCLHSVFNVHTGDELLSYEEYGHLQINAVSLYLLYLVEMISSGLQIIYNTDEVSFIQNLVFCVERVYRVPDFGVWERGSKYNNGSTELHSSSVGLAKAALEAINGFNLFGNQGCSWSVIFVDLDAHNRNRQTLCSLLPRESRSHNTDAALLPCISYPAFALDDEVLFSQTLDKVVRKLKGKYGFKRFLRDGYRTSLEDPNRCYYKPAEIKLFDGIECEFPIFFLYMMIDGVFRGNPKQVQEYQDLLTPVLHHTTEGYPVVPKYYYVPADFVEYEKNNPGSQKRFPSNCGRDGKLFLWGQALYIIAKLLADELISPKDIDPVQRYVPLKDQRNVSMRFSNQGPLENDLVVHVALIAESQRLQVFLNTYGIQTQTPQQVEPIQIWPQQELVKAYLQLGINEKLGLSGRPDRPIGCLGTSKIYRILGKTVVCYPIIFDLSDFYMSQDVFLLIDDIKNALQFIKQYWKMHGRPLFLVLIREDNIRGSRFNPILDMLAALKKGIIGGVKVHVDRLQTLISGAVVEQLDFLRISDTEELPEFKSFEELEPPKHSKVKRQSSTPSAPELGQQPDVNISEWKDKPTHEILQKLNDCSCLASQAILLGILLKREGPNFITKEGTVSDHIERVYRRAGSQKLWLAVRYGAAFTQKFSSSIAPHITTFLVHGKQVTLGAFGHEEEVISNPLSPRVIQNIIYYKCNTHDEREAVIQQELVIHIGWIISNNPELFSGMLKIRIGWIIHAMEYELQIRGGDKPALDLYQLSPSEVKQLLLDILQPQQNGRCWLNRRQIDGSLNRTPTGFYDRVWQILERTPNGIIVAGKHLPQQPTLSDMTMYEMNFSLLVEDTLGNIDQPQYRQIVVELLMVVSIVLERNPELEFQDKVDLDRLVKEAFNEFQKDQSRLKEIEKQDDMTSFYNTPPLGKRGTCSYLTKAVMNLLLEGEVKPNNDDPCLIS
modifications: farnesyl group on Cys1090 (mass spectrometry; density in the cryo-EM maps); treated with λ-phosphatase
notes: phosphorylase kinase β-subunit, human, full length; domains D1-D5; Forms the central β4 homotetramer of the hexadecamer
Question: For B1, which “stoichiometry N” value is on record?
Answer: Its value is 4.
